Blank lines part the entries; values can stand above or below the substance they belong to.
What was measured:
[1] = target: mitochondrial Prx IIF from pea (Pisum sativum), recombinant, not glutathionylated (Pisum sativum (pea)); test: SEC; Superdex-200 HR 10/30, room temperature, 50 mM Tris-HCl pH 7.5, 150 mM NaCl, 0.5 mL/min; untreated (native) protein
[2] = target: mitochondrial Prx IIF from pea (Pisum sativum), recombinant, not glutathionylated (Pisum sativum (pea)); test: SEC; Superdex-200 HR 10/30, room temperature, 50 mM Tris-HCl pH 7.5, 150 mM NaCl; protein (50 uM) reduced with 10 mM DTT for 30 min, excess DTT removed
[3] = target: SNP-treated (S-nitrosylated) pea chloroplast 2-Cys Prx (Pisum sativum (pea)); test: SEC; Superdex-200 HR 10/30, 50 mM Tris-HCl pH 7.5, 150 mM NaCl; DTT-reduced protein incubated with 750 uM SNP, excess removed
[4] = target: chloroplast 2-Cys Prx from pea (Pisum sativum), recombinant, not glutathionylated (Pisum sativum (pea)); test: SEC; Superdex-200 HR 10/30, room temperature, 50 mM Tris-HCl pH 7.5, 150 mM NaCl, 0.5 mL/min; untreated (native) protein
[5] = target: chloroplast 2-Cys Prx from pea (Pisum sativum), recombinant, not glutathionylated (Pisum sativum (pea)); test: SEC; Superdex-200 HR 10/30, room temperature, 50 mM Tris-HCl pH 7.5, 150 mM NaCl; protein (50 uM) reduced with 10 mM DTT for 30 min, excess DTT removed
[6] = target: glutathionylated pea mitochondrial Prx IIF (Cys59-SG, Cys84-SG) (Pisum sativum (pea)); test: SEC; Superdex-200 HR 10/30, 50 mM Tris-HCl pH 7.5, 150 mM NaCl; DTT-reduced protein incubated with 5 mM GSNO at room temperature (different incubation times for 2-Cys Prx), excess removed
[7] = target: glutathionylated pea mitochondrial Prx IIF (Cys59-SG, Cys84-SG) (Pisum sativum (pea)); test: SEC; Superdex-200 HR 10/30, 50 mM Tris-HCl pH 7.5, 150 mM NaCl; DTT-reduced protein incubated with 5 mM GSSG at 4 C for 24 h, excess removed

stoichiometry N [1]: 6 | stoichiometry N [2]: 2
Substance: mitochondrial Prx IIF from pea (Pisum sativum), recombinant, not glutathionylated (enzyme)

stoichiometry N [3]: 10
Substance: SNP-treated (S-nitrosylated) pea chloroplast 2-Cys Prx (enzyme)

stoichiometry N [4]: 2 | stoichiometry N [5]: 10
Substance: chloroplast 2-Cys Prx from pea (Pisum sativum), recombinant, not glutathionylated (enzyme)

stoichiometry N [6]: 2 | stoichiometry N [7]: 2
Substance: glutathionylated pea mitochondrial Prx IIF (Cys59-SG, Cys84-SG) (enzyme)

Reference: paper PMC5283164
